Data: US20160031996A1 (CSL, published 2016)

Tests used:
[1] = biological target: T1, soluble human IL-3Rα 1-306-His S59A (human, UniProt P26951 19-307); assay: Western blot, supernatants of 293FS cells
T1 construct: supernatant of 293FS cells; also called S59, soluble alanine
T1 sequence: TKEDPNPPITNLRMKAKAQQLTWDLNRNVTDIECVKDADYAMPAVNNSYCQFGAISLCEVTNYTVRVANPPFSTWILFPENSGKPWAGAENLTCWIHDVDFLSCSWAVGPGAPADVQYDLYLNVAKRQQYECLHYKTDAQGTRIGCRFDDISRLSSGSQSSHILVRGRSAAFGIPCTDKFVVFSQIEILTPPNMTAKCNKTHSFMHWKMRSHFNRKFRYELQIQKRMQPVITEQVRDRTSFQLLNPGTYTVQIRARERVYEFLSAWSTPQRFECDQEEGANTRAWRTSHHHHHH

[2] = biological target: T2, chimera of human IL-3Rα residues 101-377 with GM-CSFRα domains (human, UniProt P15509 23-114); assay: flow cytometry, transfected 293F cells
T2 construct: on 293F cells
T2 sequence: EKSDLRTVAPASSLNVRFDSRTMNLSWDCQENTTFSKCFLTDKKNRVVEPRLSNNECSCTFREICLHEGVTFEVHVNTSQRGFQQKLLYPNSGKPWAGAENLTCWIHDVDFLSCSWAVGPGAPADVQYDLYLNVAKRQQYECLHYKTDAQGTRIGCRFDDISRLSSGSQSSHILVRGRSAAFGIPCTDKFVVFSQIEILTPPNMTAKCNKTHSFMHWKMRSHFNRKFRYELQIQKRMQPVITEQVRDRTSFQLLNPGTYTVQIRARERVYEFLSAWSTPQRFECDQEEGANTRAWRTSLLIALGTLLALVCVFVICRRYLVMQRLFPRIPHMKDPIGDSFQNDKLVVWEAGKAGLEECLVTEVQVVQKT
Excerpt: Expression constructs were generated of frill length human IL-3Rα or of proteins comprising hIL-3Rα domains with various GM-CSFRα domains as depicted in FIG. 1A. […] Results are tabulated in Table 1 with positive staining (+) and negative staining (−) indicated.

[3] = biological target: T3, human IL-3Rα E51Q/S59A double mutant, full length (human, UniProt P26951 19-378); assay: Western blot after SDS-PAGE of whole cell extracts
T3 chain: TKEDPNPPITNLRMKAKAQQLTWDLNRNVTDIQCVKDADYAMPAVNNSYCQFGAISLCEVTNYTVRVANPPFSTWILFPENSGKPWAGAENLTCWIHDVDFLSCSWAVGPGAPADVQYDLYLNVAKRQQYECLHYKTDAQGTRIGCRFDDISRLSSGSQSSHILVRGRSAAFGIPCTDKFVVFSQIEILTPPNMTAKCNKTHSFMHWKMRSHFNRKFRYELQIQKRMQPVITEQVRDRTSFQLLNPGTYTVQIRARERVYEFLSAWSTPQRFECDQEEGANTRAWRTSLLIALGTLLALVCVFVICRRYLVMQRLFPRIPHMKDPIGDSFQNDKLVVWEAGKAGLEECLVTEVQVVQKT

[4] = biological target: T4, human IL-3Rα E51Q/P88T double mutant, full length (human, UniProt P26951 19-378); assay: Western blot after SDS-PAGE of whole cell extracts
T4 chain: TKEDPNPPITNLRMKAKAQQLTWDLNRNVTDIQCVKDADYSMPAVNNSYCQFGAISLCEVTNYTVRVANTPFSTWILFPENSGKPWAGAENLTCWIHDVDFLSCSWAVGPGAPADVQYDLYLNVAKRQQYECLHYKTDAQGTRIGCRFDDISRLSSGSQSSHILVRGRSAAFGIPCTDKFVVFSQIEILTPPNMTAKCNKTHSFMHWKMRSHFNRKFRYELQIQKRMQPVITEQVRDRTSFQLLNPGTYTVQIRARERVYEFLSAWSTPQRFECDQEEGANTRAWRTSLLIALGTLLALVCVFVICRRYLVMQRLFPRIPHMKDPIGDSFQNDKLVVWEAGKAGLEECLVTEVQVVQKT

[5] = biological target: T5, human IL-3Rα S59A/P88T double mutant, full length (human, UniProt P26951 19-378); assay: Western blot after SDS-PAGE of whole cell extracts
T5 chain: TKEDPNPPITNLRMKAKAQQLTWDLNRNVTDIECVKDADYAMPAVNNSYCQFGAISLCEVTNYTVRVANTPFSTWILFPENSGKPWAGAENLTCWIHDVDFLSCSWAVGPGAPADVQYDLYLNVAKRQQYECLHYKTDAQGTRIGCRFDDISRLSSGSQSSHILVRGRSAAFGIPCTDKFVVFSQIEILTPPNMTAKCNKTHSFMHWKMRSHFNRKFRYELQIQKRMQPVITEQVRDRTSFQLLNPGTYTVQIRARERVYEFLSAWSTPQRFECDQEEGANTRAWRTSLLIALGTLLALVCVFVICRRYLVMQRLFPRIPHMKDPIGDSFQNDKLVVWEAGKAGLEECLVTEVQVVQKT

[6] = biological target: T6, human IL-3Rα E51Q/S59A/P88T triple mutant, full length (human, UniProt P26951 19-378); assay: Western blot after SDS-PAGE of whole cell extracts
T6 chain: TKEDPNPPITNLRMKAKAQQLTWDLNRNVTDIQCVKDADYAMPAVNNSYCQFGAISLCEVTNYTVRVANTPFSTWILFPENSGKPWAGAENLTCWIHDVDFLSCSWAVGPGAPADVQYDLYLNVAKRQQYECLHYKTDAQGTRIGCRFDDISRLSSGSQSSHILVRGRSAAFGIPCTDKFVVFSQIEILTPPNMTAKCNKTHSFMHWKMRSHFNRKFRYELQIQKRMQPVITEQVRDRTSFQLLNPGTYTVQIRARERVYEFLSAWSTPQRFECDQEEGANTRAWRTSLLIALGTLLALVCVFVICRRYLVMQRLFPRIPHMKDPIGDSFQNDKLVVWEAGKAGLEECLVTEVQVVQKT

Measured: binding result

B1: antibody CSL362 (antibody, V domains shown)
VH: EVQLVQSGAEVKKPGESLKISCKGSGYSFTDYYMKWARQMPGKGLEWMGDIIPSNGATFYNQKFKGQVTISADKSISTTYLQWSSLKASDTAMYYCARSHLLRASWFAYWGQGTMVTVSS
VL: DIVMTQSPDSLAVSLGERATINCESSQSLLNSGNQKNYLTWYQQKPGQPPKPLIYWASTRESGVPDRFSGSGSGTDFTLTISSLQAEDVAVYYCQNDYSYPYTFGQGTKLEIKR
no binding: [1]

B2: monoclonal antibody 7G3 (antibody, V domains shown)
VH: EVQLQQSGPELVKPGASVKMSCKASGYTFTDYYMKWVKQSHGKSLEWIGDIIPSNGATFYNQKFKGKATLTVDRSSSTAYMHLNSLTSEDSAVYYCTRSHLLRASWFAYWGQGTLVTVSA
VL: DFVMTQSPSSLTVTAGEKVTMSCKSSQSLLNSGNQKNYLTWYLQKPGQPPKLLIYWASTRESGVPDRFTGSGSGTDFTLTISSVQAEDLAVYYCQNDYSYPYTFGGGTKLEIKR
notes: mouse monoclonal antibody (hybridoma ATCC HB-12009)
not listed: [1]
no binding: all other assays above
